The values below are quoted from earlier work in patent US20080213253A1, “COMBINATION THERAPY FOR THE TREATMENT OF CANCER” (DYAX CORP., priority 2007, published 2008).

The target of series [1] is Tie complex (Tie1 and Tie2) (Homo sapiens, UniProt P35590). As to conditions: statement in words, no data shown.
For series [2], the target named is Tie1 (Homo sapiens, UniProt P35590). Particulars: statement in words, no data shown.
Sequence of Tie1 (P35590 22-1138): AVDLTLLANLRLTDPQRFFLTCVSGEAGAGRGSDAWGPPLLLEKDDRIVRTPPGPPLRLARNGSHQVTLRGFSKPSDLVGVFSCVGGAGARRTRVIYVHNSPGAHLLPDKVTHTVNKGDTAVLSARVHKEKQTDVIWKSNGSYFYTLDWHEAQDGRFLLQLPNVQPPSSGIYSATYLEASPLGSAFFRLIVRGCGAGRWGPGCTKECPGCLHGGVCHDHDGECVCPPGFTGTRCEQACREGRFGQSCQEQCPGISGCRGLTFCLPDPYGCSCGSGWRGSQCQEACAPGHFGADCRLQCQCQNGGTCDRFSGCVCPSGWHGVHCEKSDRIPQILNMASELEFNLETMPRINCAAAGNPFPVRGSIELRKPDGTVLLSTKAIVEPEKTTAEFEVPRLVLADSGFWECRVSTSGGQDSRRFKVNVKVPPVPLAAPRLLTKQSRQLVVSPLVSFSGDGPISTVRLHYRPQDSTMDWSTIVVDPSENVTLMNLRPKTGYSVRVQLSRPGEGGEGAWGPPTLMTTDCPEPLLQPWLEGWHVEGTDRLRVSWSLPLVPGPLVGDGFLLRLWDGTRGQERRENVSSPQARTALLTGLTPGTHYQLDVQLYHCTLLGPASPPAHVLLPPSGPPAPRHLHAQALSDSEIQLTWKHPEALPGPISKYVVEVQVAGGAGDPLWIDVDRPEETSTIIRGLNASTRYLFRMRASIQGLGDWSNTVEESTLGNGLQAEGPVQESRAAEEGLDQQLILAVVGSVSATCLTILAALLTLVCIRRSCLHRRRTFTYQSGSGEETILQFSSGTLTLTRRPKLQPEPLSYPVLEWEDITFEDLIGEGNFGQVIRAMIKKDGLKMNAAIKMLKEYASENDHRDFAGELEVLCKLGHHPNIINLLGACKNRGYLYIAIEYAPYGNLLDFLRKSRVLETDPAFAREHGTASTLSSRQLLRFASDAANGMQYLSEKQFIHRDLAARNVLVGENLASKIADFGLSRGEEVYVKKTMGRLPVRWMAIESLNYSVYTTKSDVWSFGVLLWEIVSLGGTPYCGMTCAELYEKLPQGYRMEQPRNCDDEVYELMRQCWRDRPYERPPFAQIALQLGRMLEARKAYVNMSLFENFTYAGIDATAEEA

Sequence of Tie complex (Tie1 and Tie2) (P35590 22-1138, one chain of several): as the sequence (P35590 22-1138) above

B1: M0044-B08: Tie1 ectodomain-binding antibody; variable domains SEQ ID NO:1 and 3 (antibody, V domains shown)
VL: QDIQMTQSPSFLSASVGDRVTISCRASQYISIYLNWYQQRPGEAPKLLINAASSLQSGDPSRFSGSGSGTDFTLTINSLQPDDFATYYCQQYKSYPLTFGEGTKVEIK
VH: EVQLLESGGGLVQPGGSLRLSCAASGFTFSAYGMGWVRQAPGKGLEWVSVISPSGGQTSYADSVKGRFTISRDNSKNTLYLQMNSLRAEDTALYYCAGGDRYGPLHYWGQGTLVTVSS
Consider B1, for which the Tie complex formation result in series [1] is on record as “induce Tie complex formation”. For the same molecule, the “down modulation of Tie1 from the cell surface” value in series [2] is “down modulation of Tie1 from the cell surface”.
